The source of these data is publication PMC4004960.

In this test the target is BRD4-BD1 (recombinant, NMR and fluorescence anisotropy) (UniProt O60885). The test is described as follows: fluorescence polarisation. A general note: Fluorescence polarisation rises when a labelled molecule tumbles more slowly, as on binding a larger partner.

For “Twist-K73ac/K76ac peptide (residues 68-79) (from UniProt Q15672 68-79)”, the Ki was greater than 3 mM.

Usually Ki stands for a dissociation constant, usually derived from enzyme kinetics or from competition with a known ligand.
